In patent publication US10617743B2, “Method to improve safety and efficacy of anti-cancer therapy” (CLS Therapeutics Limited, priority 2014, dated 2020):
Where two headings read alike, the source gives them in different places.

Experiments:
L1210 leukemia cells = experiment: Survival of mice transplanted with L1210 leukemia cells (FIG. 4); format: in vivo; details: DBA2 mice; AraC 1000 mg/kg IP Days 2, 5, 8; DNase II 15 or 45 mg/kg/day IP; alone or combined
Experimental: Treatment with DNase and AraC was initiated on Day 1 of experiment. Cytosine arabinoside (AraC; Cytosar, Pfizer) was injected IP at a dose of 1000 mg/kg on Days 2, 5 and 8. The injected doses were considered adequate for the model and injection route based on prior experiments (13-14). DNase II (Wornington) was injected IP at doses of 15 mg/kg/day and 45 mg/kg/day on Days 1, 3, 5, 8, 10, 12, 15, 17, and 19.
Animals were randomized into 6 experimental groups of 6 mice per group as follows: • 1. Group I: negative control (no treatment); • 2. Group II: positive control (animals treated with AraC); • 3. […]; • 4. Group IV: animals treated with AraC and 45 mg/kg DNase; • 5. Group V: animals treated with 15 mg/kg DNase, no AraC; • 6. Group VI: animals treated with 45 mg/kg DNase, no AraC.
The vertical axis of FIG. 4 represents the survival measured in days after implantation with the L1210 leukemia cells. The six experimental groups are represented on the horizontal axis: 1—Negative Control; 2—AraC (positive control); 3—AraC+DNase II 15 mg/kg; 4—AraC+DNase II 45 mg/kg; 5—DNase II 15 mg/kg 6—DNase II 45 mg/kg.

gastrointestinal lesions = format: in vivo, rats; details: for Total number of lesions per group: 16 rats
Experimental: On Day 1, Etoposide (LANCE) 200 mg/kg and 5-fluorouracil (5-FU; EBEWE) 400 mg/kg were given orally via feeding needle in 500 μl of a 9% glucose solution. Animals were divided into 4 groups of 16 rats each. […] Group I: IV placebo (WFI); • 2. Group II: human recombinant DNase I (Pharmsynthez OJSC) at 1.5 mg/kg (3000 KU/kg) dose IV; • 3. Group III: human recombinant DNase I (Pharmsynthez OJSC) at 50 mg/kg (100000 KU/kg) dose IV; • 4. Group IV: cimetidine solution (Gedeon Richter) at 50 mg/kg dose IV.
36 hours later, all animals were euthanized and their stomachs were removed and analyzed for the presence of erosions and hemorrhages using an automated video analyzer system.

Wistar male rats = details: for Number of dead/out of total in group: monitored 2 weeks
Source text: Group I: control group (no Doxorubicin, no DNase); • 2.
Animals were monitored during 2 weeks from the beginning of experiment for survival and weight.

[1] = test system: white blood cell count (WBC); experiment: Cyclophosphamide-induced neutropenia in mice (FIG. 3); format: in vivo; details: for Effect on typical early phase decline in WBC count (FIG. 3): cyclophosphamide 200 mg/kg IP Day 1, DNase I 25 mg/kg/day IV or GM-CSF 200 μg/kg/day SC on Days 2-5
Experimental: 30 female 10-12 week old BALB/C mice (obtained from Rappolovo animal house) were used in this experiment. […] Starting on Day 2, mice were then treated as follows: • 1. Group I (n=10): control (no treatment); • 2. […] Group III (n=10): animals were treated with human recombinant GM-CSF (Neostim, Pharmsynthez OJSC) at 200 μg/kg/day dose injected subcutaneously (SC) on Days 2-5. […] The graph in FIG. 3 summarizes the dynamics of the white blood cell count (WBC) in the three experimental groups. The vertical axis represents WBC with units of 10^9 WBC/L. The horizontal axis represents the number of days after cyclophosphamide injection.

thymocytes = experiment: Con A-induced lymphocyte blast transformation of thymocytes from paclitaxel-treated mice; format: in vivo; details: paclitaxel 20 mg/kg IV, DNase gamma 2 mg/kg IP
Experimental: 10 male 6-week-old (CBAxCS7Bl6) F1 mice (obtained from Rappolovo animal house) were given a single 20 mg/kg dose of paclitaxel (Paclitaxel-Teva) IV. A group of 5 paclitaxel treated mice were injected IP 1 hour later with recombinant mouse DNase gamma (USCN Life Science Inc.) at 2 mg/kg dose IP. A group of 5 untreated mice were injected IP at the same time with 1 ml of placebo (WFI) to serve as the control. All mice were killed 24 hours later by cervical dislocation. The thymuses from each group were collected and homogenized in a separator in RPMI 1640 media supplemented with 10% fetal calf serum. The suspension of thymocytes was filtered and sedimented in a centrifuge at 400×g for 2 minutes and then resuspended with the same media. Thymocytes were plated into 96 well plates (900,000 cells per well in 200 μl of RPMI 1640 supplemented with 10% fetal calf serum (FCS)) and incubated for 32 hours at 37° C., 100% humidity and 5% CO2 atmosphere. Each well was then supplemented with ^3H thymidine (1 μCi/10 μl/well) and Concanavalin A (ConA; 50 μl: 1.25 μg/ml). After 24 hours of further incubation, thymocytes were harvested and dried. Labeled ^3H thymidine incorporation was measured using a Beckman scintillation counter.

[2] = Body weight of mice with Erlich carcinoma, DNase with or without radiotherapy; format: in vivo
Erlich carcinoma cells = experiment: Survival of mice with Erlich carcinoma, DNase with or without radiotherapy; format: in vivo; details: for % Survival on Day 16: no radiotherapy
myocardium = experiment: Myocardial necrosis area in deceased rats challenged with doxorubicin (FIG. 1); format: in vivo; details: Doxorubicin 7.5 mg/kg IV, DNase I 15 mg/kg daily IP vs placebo
Experimental: FIG. 1 is a bar graph showing myocardial necrosis area in deceased rats challenged with sub-lethal IV doses of doxorubicin (7.5 mg/kg) and either daily IP injections of human recombinant DNase I (15 mg/kg) (black bar) or daily […] injections of placebo (WFI) (diagonal hatched bar). Serial myocardium microscopy samples from each heart were analyzed using an automated video analyzer to quantify the necrotic areas. The sum of necrotic area (Sna; nm^2) was calculated as a sum of necrotic areas in 30 serial slides from each individual autopsied heart (n=3 for DNase I-treated rats—black bar; n=5 for placebo-treated rats—diagonal hatched bar).
The hearts deceased rats challenged with sub-lethal doses of doxorubicin (7.5 mg/kg) from (Groups IV and V) were autopsied. Serial myocardium microscopy samples from each heart were analyzed using an automated video analyzer to quantify the necrotic areas. The sum of necrotic area (Sna; nm^2) was calculated as a sum of necrotic areas in 30 serial slides from each individual autopsied heart (n=3 for Group IV (FIG. 1, black bars); n=5 for Group V (FIG. 1, diagonal hatched bars)). Group IV received daily IP injections of human recombinant DNase I at 15 mg/kg dose, while Group V received daily IP injections of placebo (WFI).

[3] = treatment 50 mg/kg IV 2 h after Etoposide 200 mg/kg + 5-FU 400 mg/kg per os
[4] = Doxorubicin 7.5 mg/kg/day IV 5 days with DNase I 15 mg/kg/day IP (Group IV) or placebo IP (Group V)
[5] = Doxorubicin 10.0 mg/kg/day IV 5 days with DNase I 15 mg/kg/day IP (Group VI) or placebo IP (Group VII)
[6] = of 16 rats, treatment 50 mg/kg IV after Etoposide 200 mg/kg + 5-FU 400 mg/kg per os
[7] = DNase I 15 mg/kg/day IP with Doxorubicin IV 5 days

Molecule: Nc1ccn([C@@H]2O[C@H](CO)[C@@H](O)[C@@H]2O)c(=O)n1 [AraC, cytosine arabinoside]
- Survival after implantation with L1210 leukemia cells (FIG. 4) (L1210 leukemia cells): better survival rates

Molecule: CN/C(=N/CCSCc1nc[nH]c1C)NC#N [Cimetidine, cimetidine, reference compound]
- Total number of lesions per group (gastrointestinal lesions; [3]): 40

Molecule: COc1cccc2c1C(=O)c1c(O)c3c(c(O)c1C2=O)C[C@@](O)(C(=O)CO)C[C@@H]3O[C@H]1C[C@H](N)[C@H](O)[C@H](C)O1 [Doxorubicin, reference compound]
- Number of dead/out of total in group (Wistar male rats; [4]): 5/6
- Number of dead/out of total in group (Wistar male rats; [5]): 6/6

Molecule: GM-CSF: human recombinant GM-CSF (Neostim, Pharmsynthez OJSC)
- Effect on typical early phase decline in WBC count (FIG. 3) [1]: not able to prevent it

B1: DNase gamma: recombinant mouse DNase gamma (USCN Life Science Inc.) (protein, UniProt O55070 26-310, looked up)
Deoxyribonuclease gamma: LRLCSFNVRSFGASKKENHEAMDIIVKIIKRCDLILLMEIKDSSNNICPMLMEKLNGNSRRSTTYNYVISSRLGRNTYKEQYAFVYKEKLVSVKTKYHYHDYQDGDTDVFSREPFVVWFHSPFTAVKDFVIVPLHTTPETSVKEIDELVDVYTDVRSQWKTENFIFMGDFNAGCSYVPKKAWQNIRLRTDPKFVWLIGDQEDTTVKKSTSCAYDRIVLCGQEIVNSVVPRSSGVFDFQKAYDLSEEEALDVSDHFPVEFKLQSSRAFTNNRKSVSLKKRKKGNRS
- Effect on taxane-induced suppression of thymocytes' proliferative activity (thymocytes): ameliorates taxane-induced suppression

B2: human recombinant DNase I: human recombinant DNase I (Pharmsynthez OJSC), deoxyribonuclease enzyme (protein, UniProt P24855 23-282, looked up)
Deoxyribonuclease-1: LKIAAFNIQTFGETKMSNATLVSYIVQILSRYDIALVQEVRDSHLTAVGKLLDNLNQDAPDTYHYVVSEPLGRNSYKERYLFVYRPDQVSAVDSYYYDDGCEPCGNDTFNREPAIVRFFSRFTEVREFAIVPLHAAPGDAVAEIDALYDVYLDVQEKWGLEDVMLMGDFNAGCSYVRPSQWSSIRLWTSPTFQWLIPDSADTTATPTHCAYDRIVVAGMLLRGAVVPDSALPFNFQAAYGLSDQLAQAISDHYPVEVMLK
- Change in Median Body Weight on Day 16 ([2]; Group 4: radiotherapy 200 cGy per day for 5 days plus DNAse I 20 mg/kg/day intramuscularly): 0 g
- Effect on body weight loss induced by radiotherapy ([2]; mice with Erlich carcinoma, radiotherapy plus DNase I): clearly prevents the body weight loss
- Survival rates versus non-treated mice (Erlich carcinoma cells; DNase I alone (Groups 2 and 3)): better survival rates
- % Survival on Day 16 (Erlich carcinoma cells; Group 2: DNAse I 20 mg/kg/day intramuscularly in 2 daily doses): 40%
- % Survival on Day 16 (Erlich carcinoma cells; Group 3: DNAse I 40 mg/kg/day intramuscularly in 2 daily doses): 50%
- Survival of combination of radiation therapy and DNase versus either treatment alone (Erlich carcinoma cells; Groups 4 and 5, dose-dependent on DNase): clear survival advantage
- Total number of lesions per group (gastrointestinal lesions; treatment 1.5 mg/kg IV 2 h after Etoposide 200 mg/kg + 5-FU 400 mg/kg per os): 60
- Total number of lesions per group (gastrointestinal lesions; [3]): 16
- Achieved protection compared to 1.5 mg/kg DNase I dose and 50 mg/kg dose of cimetidine (gastrointestinal lesions; DNase I 50 mg/kg IV, rats treated with etoposide and 5-FU): significantly superior
- Number of lesion free animals (gastrointestinal lesions; of 16 rats, treatment 1.5 mg/kg IV after Etoposide 200 mg/kg + 5-FU 400 mg/kg per os): 5
- Number of lesion free animals (gastrointestinal lesions; [6]): 12
- Number of lesion free animals (percent) (gastrointestinal lesions; [6]): 75%
- Effect on chemotherapy-induced ulceration (gastrointestinal lesions; rats treated with etoposide and 5-FU, dose-dependent (1.5 and 50 mg/kg IV)): suppresses chemotherapy-induced ulceration
- Effect on neutropenia induced by cyclophosphamide (FIG. 3) ([1]; cyclophosphamide 200 mg/kg IP Day 1, DNase I 25 mg/kg/day IV Days 2-5): ameliorates neutropenia
- Effect on typical early phase decline in WBC count (FIG. 3) [1]: prevents the typical early phase decline in WBC count
- Effect on lethality of doxorubicin (Wistar male rats; [7]): suppresses the lethality of doxorubicin
- Effect on life span of rats challenged with sub-lethal doses of doxorubicin (Wistar male rats; [7]): increases the life span
- Number of dead/out of total in group (Wistar male rats; [4]): 3/6
- Number of dead/out of total in group (Wistar male rats; [5]): 6/6
- Effect on myocardial necrosis area (FIG. 1) (myocardium): decreases the myocardial necrosis area
